# Results reported in the domain aggregation screens of Martell et al. (2025).
# Assay: soluble fraction after stress (log2 fold change); higher = more stays soluble; pooled small domains, quantitative proteomics
# Conditions: stress: 50 degC
# Summary of the method: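 The stress applied to every library was 50°C. These custom libraries of small protein domains were pooled and measured at high throughput with quantitative proteomics as the read-out. Aggregation propensity is expressed as the base-two logarithm of the fold change in how much of each protein remains soluble. The higher the value, the more of that protein stays in solution.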
row,Sequence,soluble fraction (log2)
1,HMEEVRFPLKKEILLWALKEAQVDEDEVFRKFTNLEKWINGEKHPTFKQIESLANYLKIPFGYMFLEKPPI,0.0399
2,HMGRKRLADYGLNDTEQKIVRKIADGLSNREIAQALYLSEGTVKNYITDILGKLELRDRTQIAIFYLREIG,-0.0293
3,HMGKVNGFEITVIEGKNVVGSITPRQAIAKNSDGVIQLRGEQSFSATDQVLINELAFYIKSNNLKA,-0.949
4,HMSMISLPNFVGKDIETVKAWAKENGITLIINKVEDSAKKDTVISQNPTNSDYSKILKGSAFTVNIAKE,0.0206
5,HMERVNILEKATKDIPNVEVKAFEGLSVNFARENHAQVIVRGLRAVTDFEYELQMAQTNRVLAPDVDTVF,0.124
6,HMKTKHISIAEGMSLYTRDRSPFYWGYLNIEGVIHKKSLKTDVVDEAIKLLSIWKNELLNSITK,-1.28
7,HMILNPADEEKMNLINFELQQRGLEINDKEMQYIFTHHSRDLNSLLNLAEKLDEISHQEKKSISINLIKKI,-0.0218
8,HMQINDSSVVQKAVNDVIDQNSKAVSDYWDGKEGAAKFLMGQVMKLTRGQANPDLANQLILTRLQQERV,0.264
9,HMKPDSEFTSQDLWQNDLAGTGSAAYRRDKMGALLGIGYGNAKRFLERLNSYGVTRSEFDEALAQLGE,-0.0612
10,HMEKMLENIDLKAAVEALPEREKKVILLRYYRGMTQDAAAKVMKVSQVQISRIEKRAIEILREKL,-1.52
11,HMPYFLKQSNTRSKGLYLQIYHSFYVPGKGSRNKSYKAIGYVSELIKNGIEDPITYAKNLVDELNNNSSTP,-3.75
12,HMPYEHQRAVGALIRRLREQQGWSQRALADWVHMDQSAVSRVETGQRSVTAEELGRFADALHVSTDALVR,-0.291
13,HMQISDEAALLAIVDRVIADNQGPLANYLGGKQSLLGWFVGQVMRATRGQAIPAVVNRLVGERLAAQREE,-0.627
14,HMANKQLQEKLKNYISENGSLSSAAKAIGLSPATLSTYLKDKYEGNVANVETRLTEIFETVEAANNLL,-0.258
15,HMREGNELLGKEGVTVSELRPAGIALIDGRRTDVVTDGEFVAVDQAVEVVEVSGNRVVVRRS,0.0948
16,HMNMFGIQRRNHLLSLLQEKKSITVQEAAVIFEVAEETIRRDFRTMEGQGLIVRTHGGALLADD,-2.19
17,HMTDEEKENLREKMLEAGFPLLKQYGMTHTSVAKITQAAGIAVGTFYSFWKNKEAYMADLIGYHRR,-0.818
18,HMNIDKLVGSTGTVVRSVTPDTAGLVRVNDEDWRASAEEILYERDAIVVEGIEGVTLIVSKLS,-0.43
19,HMEKIYLISDAAKQVNVEAHVLRYWEEELDIPAKRNELGHRYYTQEDIETFRKVKELKAQGIQLKGIKNIL,0.123
20,HMPNYVEMLRLHEAGFSLRQIAKLVSSGRNTVTRTVNIAQEKELSYEEIAQWSSEELENMFKPD,-1.68
21,HMLQVRRILQLLADGYSKRQISQQTAVSRNTIDSYEDRFHLTGKSYQELLSMEDGELSGIVYP,-0.424
22,HMAEKGIGRVNADWLNMRTSPGGEVLTVLKQGTELQVIGRSGSWLEVQHGNEQGYVSSRYITIQP,-0.17
23,HMAEDLRTLDGIDEDLLRDLAQAGITTRDGLAELSIDELREITGVEPGEAEKIILAARAHWFETDE,-0.135
24,HMYKMKDRIKKIMEMQRTTQQDFADQLKIAPATLSSIFTGRTRPTLAIVDAIKSRFPQISTDWLMFGKGDM,-0.219
25,HMGYTPGVVIQKSAILEEINQPDLALGMMLEAVKKDSQNLDILNRLVTLLIDQKKNEDAEIYNKKIIT,0.0254

row,Sequence,soluble fraction (log2)
1,HMPVSDLQSALRNTLSKGDATDPAFRQRVYRAAMDALERATGSESDPQRRSEQKQRLIAVIRDMEASYRR,0.277
2,HMSSVVVARTWTDTTGDFKVEAELLGVEGGLVRLKKEDGTVLSVPIAKLSTADRTFLQENQP,0.144
3,HMNDYNLTDREKEVLTFLFQGLEYKEIGMKMSVSPNTIRNHISNIYKKLHVTSKTQAIRVFLNN,-2.21
4,HMRPILTLEEAKAKALAHAGLKADQVTFTEAKLDWDDGKQVYDIEFYTADFKEYDYEIDAKTGEVLEVDY,-0.452
5,HMVVSDKIAFSSFLKSVEDGRVVEVEITGNDIRGILSDGTVFNTYAPNDPNLVEKLTSKGVNITALPKE,0.19
6,HMNISALKGKIGEVYLKIPAHNAGKGKVLISLKGTHHELYAITRSGEDISSGEFVKVIEIEDEILVVEK,-0.58
7,HMGKRRGLKVAEEVFADRGYNPDGTLVNRSLPGAFVKDPDEAIARVIKMVKTKKVTAVNGEEIDIAADSI,0.132
8,HMEVTLEEKLSYVEEYAKVHSHFSFRDLLKKQASKTQIVVTFLAILELMKTGKIQITQEHIFDDIVITAK,-0.0755
9,HMNGNLRAQVLELMGRADYEPLNKSELSRKLDLQGSDRSSLRILMDELERDHSVVRLKKGRFALKVV,-0.853
10,HMALPHEIKQKWLEEIMTMLRSSDSVTINKVYLHFPENKSHWVDEILTDLSNTHMITRQHDFIRLKN,-0.282
11,HMETDNEKVRTAFQNGLAAYREQDWDRAEAAFGAVLAEMPEDRPSLVYLERIAHLRKKAPPGAWDGVWI,-0.0616
12,HMSIVVPDLRGKTLEEARAILKEADLDFEINDSTFSKTARPGTIRDVVPSPGSRVKAGRILFISINGF,-0.519
13,HMQQLTDRELEVLRLLAAGLSNNKIGEKLYISATTAKFHVSNIMRKLEVSRRAEAVYAASKRGL,-2
14,HMIQKTHPALEIVKEYFSSQAASEFEAERFFNYYTSNGWLIGGKTKMKDWQAAARNWILNTAK,-0.199
15,HMAIADQPISAEHFDKLRQVLNSNTQETIASAKQHWASISNNAEFTNENVTRTLLEEMLAFIKSAS,0.307
16,HMDMAENEEYKVIMGQAQQLAEQFFPADDNTRRIMLGQLKLENYSLYLLTKQILDEATKGQAAAAN,0.0229
17,HMIIDPQIRTLWTSQIIDILKSNPKRSIRSILELYPSNKESWVLIILQELIGEEKIIRDLDYLYFNK,-2.22
18,HMQSMSADDWSEKARVLMSAGIIVMGQEAKEKILNLKSLVPLIEAASASNVSMIDSRTFDELLMIIP,-1.26
19,HMTIRLKELRKQKGNTQAEVAKILGTNQSQYGKYENERTQLSLDNAKILSDYFGVSVPYLLGLDDNP,-0.0854
20,HMNNIGENIKKYRTKQGLSQEDFAKKSGVKYTTLTKIESGVIKKPSVLVMAKIAKALGVNIEELI,-0.0879
21,HMYDEKTLRKAVLDYVRDNDDGRLDLMKIDSYLTSRYGNIDYAALGYNRLSMFISSFPELRRNSNYVTLRK,-0.164
22,HMKTRQVTVRNGRIEIFDKRFSTERLVFTAANLPVLEREGEVFTAGIPDSRDFINLWARDGSFAGSVPRV,-1.06
23,HMDDLATAYKAMGVDASISDKDLKRAYRKLMSQHHPDKMIAKGVPADMVAMATEKTQEIQAAYDLIERSR,0.127
24,HMEGMQATVTQITDEGITVRYVMNGQMVTRTLTSDEVAFVNRGQAVSDLAGAYRVGQTVWIY,-0.0401
25,HMYVKIAADAAMPYTIKRVVTDYSSAALDAAYDGSLPKWLTISSSTKDAGSGLYRHEIIYTVTAHPE,-0.68

row,Sequence,soluble fraction (log2)
1,HMGEIILVPDVKAQGVSDARYTLNQAGLDAVIADSSYNRNSPPGAVLEQMPAPGSKVKSGHAIYLIINTT,0.053
2,HMFDGVAAGKPAILDALEDAGGFLPLNSKSSVEEIQASFSFSKRVFKQLIGMLYKERKIVITDDGIRLAD,-0.352
3,HMKLTESQLHKFTNDAVLAHIRNLIEFKGAFTEDDIEPIIRDRAAVYGIDLEDEDYKKVKTDVEYHFK,-0.000214
4,HMLNNVDIHKLSEDLLLYKIKIDIKLKNIEDAISTIDYFSNKFPNSDLMPYVIYEKKLIDNI,-2.5
5,HMNNQKATAVKVASGIVNLRSGPATSYETLDTVATGETLSVLAEKDGWFQVSRAGRTGWVAGWVVDVIRE,-0.0645
6,HMTNKSKQRRNEILRASQELFNKKGFHDTSINDIMRRVGAAKGVFYYYFETKDQILDTLIEQHIA,-0.907
7,HMTNVETLVRMRLRSIRTTLGYSLDEIAERSNLSASTVSRIETGKRALSIDVLVPLAAALQVSVDDLLRAE,-2.43
8,HMENRLREVRDEIATRHGILPTVFINDRVLMNIHSKKPKDVSQLWQVDGISDEFIMKYGPEFIAEYKKKAK,0.0216
9,HMNKIDVVEVDMSKPYEDMTVTELQNVILGKLASNGPVTDQMKKDVAENIYHDSLVNWAKSF,0.505
10,HMQSLDGPSRAAIVLMAIGPDVAGELIKSFSPAEAQKVSSLLATVRSLDREVMIEVLDSFKNITEH,-0.323
11,HMIMGTIEKRGPFSFRIGVQVRLPDGSWEWIRDTIHVSPDLSARAARKQAEMALARLEADVYEGKRKPD,-0.878
12,HMASIGVGTIVRVANAVNYNGVKVKAWFNDEGYEVTELSGDRAVLKHNGDLFDAFHVSDLEA,-1.29
13,HMKEKPLWAIRITELREEHYFTQTDVSKALGIAQTTYAGYETGRHEPDFETMIKIADIYKVSLDYLIGR,-1.27
14,HMGEDFPYVAYATDSVRLRSKPSSSGDILAVIRQGDAVLITGSDGNYKIVEYEGRKGYVISAFLSQTP,-0.199
15,HMFHFELNAAKQALEDRKTIDRAKGILMRQRGMSEDDAYKLLRTTAMSQNRKVIDVAQALVTAADLL,-0.0832
16,HMDVFPDESLKAWLIEMGFKLDQKKMNVFTVLRRMLLQTAPSVKEFRILEIVLQQSRRKLKELNDLKKS,-0.0335
17,HMNQGKLIEMLQEMKEIAHSQNNYLTKNEIANYLGDTVLSKEQLQAVYHYLGENHIEVEGYVYIP,0.035
18,HMKEVVVPDYFLKQLQKNKKAFITFNNFSPSHKREYVEWITEAKTEETKNRRMKSAIEWMSEGKSRNWKYI,0.0292
19,HMARGLRPVPSVFGLDVRQATRTLYAAGFQVSIARGSDVRTRPAAGTLLRVGSTVQLEMPRMESA,-1.54
20,HMRYPLPYAFARSQQLLLEETDDGRYTLWMSSHPARSAVGEVSRKYGVQTFEVLADGPLAQRISAAYAQ,-1.37
21,HMEEVIEVEGKITAVLPSTMFRAELENGHQVLAHISGKLRKHFIKITVGDIVKMEMSTQDLQKARIV,-0.307
22,HMVTYELTEDEKFIVSLLEKENSQPIGALKDKSALSGKKWDAAMKGLAKHGLTKVVVDGDNKLVVL,-0.00965
23,HMLAEEDRRRAERPGLDGNAVMVHLGIGPGRHVGEALAFLLEVRRSEGDLAVAELKSRIDAWWADR,-2.59
24,HMLPPVFLTIDANENVIVRKDGEPVQTLNKFELGAFARSQAENSAEQPVVLAADKSIKYEVVMEVI,0.0698
25,HMNEISFYPNPAKESLTVKGLSEITSYSISDINGKLIQYGTTFDRINLEKLTKGFYFLTIGNTISKKLIV,-0.39
